The values that follow come from patent publication US20220119513A1 (ZOETIS SERVICES, published 2022).

Positions count from the first letter of the chain named. Like-named read-outs stand apart in the source and are kept apart here.

Assay [1] deals with T1, TGFβ3 (R&D Systems) (Homo sapiens (Human), UniProt P10600 301-412, Active TGFβ3 is a disulfide-linked homodimer of this chain; one copy is given.).
T1 construct: also called TGFB3
T1 sequence: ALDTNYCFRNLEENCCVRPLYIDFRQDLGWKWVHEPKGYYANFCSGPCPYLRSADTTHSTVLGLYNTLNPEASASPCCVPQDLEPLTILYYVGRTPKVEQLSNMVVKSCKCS
Briefly: SPR full titration.

Assay [2] addresses T2, TGFβ1 (R&D Systems).
T2 construct: also called TGFB1
As to the kind of experiment: SPR full titration.

Assay [3] has as its target T2, TGFβ1 (R&D Systems). As to the kind of experiment: cell-based or functional assay.
Another assay concerns the target human TGFβ1 (PeproTech) (human, UniProt P01137 279-390). Briefly: HDX-MS epitope mapping, TGFβ1 with and without mAb.
Assay [4] addresses T3, TGFβ2 (R&D Systems).
T3 construct: also called TGFB2
T3 sequence (P61812 303-414, species assumed, looked up): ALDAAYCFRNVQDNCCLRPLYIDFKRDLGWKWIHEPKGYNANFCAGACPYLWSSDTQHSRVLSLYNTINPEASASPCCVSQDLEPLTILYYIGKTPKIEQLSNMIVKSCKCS
As to the kind of experiment: SPR, TGFβ on chip. From the text: (§1) To avoid affinity differences associated with differential surface preparation that can occur when immobilizing antibodies to surfaces, TGFβ1, TGFβ2, and TGFβ3 (R&D Systems) were directly conjugated to the individual surface. Immobilization was obtained by amine coupling […] using N-hydroxysuccinimide (NHS)/1-Ethyl-3-(3-dimethylaminopropyl) carbodiimide (EDC) chemistry. Chips were quenched with ethanolamine and the affinity with which all candidate mAbs bound to the immobilized TGFβ was evaluated. All curves were fit to a 1:1 model. Affinities <10⁻¹¹ are below the lower limit of quantitation of detection for the instrument.
(In general: Surface plasmon resonance follows binding to a sensor surface in real time, without labels.)

Assay [5] has as its target T1, TGFβ3 (R&D Systems). Briefly: SPR, TGFβ on chip.
From the text: as §1

For assay [6], the target named is T2, TGFβ1 (R&D Systems). Briefly: SPR, TGFβ on chip.
From the text: as §1

Assay [7] addresses T1, TGFβ3 (R&D Systems). As to the kind of experiment: cell-based or functional assay.
For assay [8], the target named is T2, TGFβ1 (R&D Systems). As to the kind of experiment: cell-based or functional assay. The source holds these as a separate data set.
Assay [9] concerns the target T3, TGFβ2 (R&D Systems). Briefly: cell-based or functional assay.
For assay [10], the target named is T1, TGFβ3 (R&D Systems). As to the kind of experiment: cell-based or functional assay. This is another data set of the same source.
The target of assay [11] is T2, TGFβ1 (R&D Systems). Briefly: cell-based or functional assay. The source holds these as a separate data set.
The target of assay [12] is T3, TGFβ2 (R&D Systems). As to the kind of experiment: SPR full titration.
Assay [13] deals with T1, TGFβ3 (R&D Systems). As to the kind of experiment: SPR full titration. The source holds these as a separate data set.
Assay [14] has as its target T2, TGFβ1 (R&D Systems). As to the kind of experiment: SPR full titration. This is another data set of the same source.
For assay [15], the target named is T2, TGFβ1 (R&D Systems). Briefly: cell-based or functional assay. The source holds these as a separate data set.
The next assay deals with canine TGFβ1 (canine, UniProt P54831 279-390, limits assumed). Briefly: SPR, TGFβ on chip.
From the text: as §1

A further assay has as its target T4, canine TGFβ3 (canine, UniProt A0A8I3S1P1 346-457).
T4 sequence: T1 sequence
As to the kind of experiment: SPR, TGFβ on chip.
From the text: as §1

For another assay, the target named is T5, canine TGFβ2 (canine, UniProt A0A8I3PZZ6 331-442).
T5 sequence: T3 sequence (P61812 303-414, species assumed, looked up)
Briefly: SPR, TGFβ on chip.
From the text: as §1

For assay [16], the target named is T2, TGFβ1 (R&D Systems). As to the kind of experiment: SPR.
In assay [17] the target is T3, TGFβ2 (R&D Systems). Briefly: cell-based or functional assay. This is another data set of the same source.
For assay [18], the target named is T1, TGFβ3 (R&D Systems). As to the kind of experiment: cell-based or functional assay. This is another data set of the same source.
The target in assay [19] is T2, TGFβ1 (R&D Systems). As to the kind of experiment: cell-based or functional assay. The source holds these as a separate data set.

T2 sequence (P01137 279-390): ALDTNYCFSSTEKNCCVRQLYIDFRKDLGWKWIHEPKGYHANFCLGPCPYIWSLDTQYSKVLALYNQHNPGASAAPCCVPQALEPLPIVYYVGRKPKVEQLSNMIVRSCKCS
Chain of human TGFβ1 (PeproTech) (P01137 279-390 limits assumed): as the sequence (P01137 279-390) above
Chain of canine TGFβ1 (P54831 279-390 limits assumed): as the sequence (P01137 279-390) above
Procedure for human TGFβ1 (PeproTech): Hydrogen Deuterium Exchange (HDX) experiments were used to determine the epitopes on TGFβ1 to which each antibody series binds. This method establishes the peptide level epitope on TGFβ1 targeted by each mAb by HDX mass spectrometry. For each mAb analysis, TGFβ1 is incubated in deuterium oxide in the presence and absence of mAb, is digested, and fragments are then analyzed and compared for hydrogen/deuterium exchange via mass spectrometry.
More specifically, the method was carried out as follows: One milligram of TGFβ1 was reconstituted in 500 μL control buffer (50 mM phosphate, 100 mM sodium chloride at pH 7.4). […] The mass spectra were recorded in MS only mode.
For pepsin digestion, 10 μg of human TGFβ1 in 80 μL control buffer (50 mM phosphate, 100 mM sodium chloride at pH 7.4) was denatured by adding 160 μL of 8 M urea, 0.85 M TCEP buffer (final pH is 4.0) and incubating the mixture for 3 min at 6° C. Then, the mixture was subjected to pepsin digestion using an-house packed pepsin column (2.1×30 mm) at 11° C. and the resultant peptides was analyzed using a UPLC-MS system comprised of a Waters Acquity UPLC coupled to a Q Exactive™ Hybrid Quadrupole-Orbitrap Mass Spectrometer (Thermo). […]

B1: chi SL501 (antibody)
heavy: EVQLVESGGGVVQPGRSLRLSCAASGFTFSSYGMHWVRQAPGKELEWVAVISYDGSIKYYADSVKGRFTISRDNSKNTLYLQMNSLRAEDTAVYYCARTGEYSGYDTDPQYSWGQGTTVTVSSASTTAPSVFPLAPSCGSTSGSTVALACLVSGYFPEPVTVSWNSGSLTSGVHTFPSVLQSSGLYSLSSMVTVPSSRWPSETFTCNVAHPASKTKVDKPVPKRENGRVPRPPDCPKCPAPEAAGAPSVFIFPPKPKDTLLIARTPEVTCVVVDLDPEDPEVQISWFVDGKQMQTAKTQPREEQFNGTYRVVSVLPIGHQDWLKGKQFTCKVNNKALPSPIERTISKARGQAHQPSVYVLPPSREELSKNTVSLTCLIKDFFPPDIDVEWQSNGQQEPESKYRTTPPQLDEDGSYFLYSKLSVDKSRWQRGDTFICAVMHEALHNHYTQESLSHSPGK
light: EIVLTQSPSSLSASVGDRVTITCRASQGIGDDLGWYQQKPGKAPILLIYGTSTLQSGVPSRFSGSGSGTDFTLTINSLQPEDFATYYCLQDSNYPLTFGGGTKRNDAQPAVYLFQPSPDQLHTGSASVVCLLNSFYPKDINVKWKVDGVIQDTGIQESVTEQDKDSTYSLSSTLTMSSTEYLSHELYSCEITHKSLPSTLIKSFQRSEC
notes: also called Chimera-SL501-VH/Chimera-SL501-VL
Consider B1, for which the binding result in the assay with TGFβ3 (R&D Systems) [1] is on record as “no binding”. In the assay with TGFβ1 (R&D Systems) [2], the affinity, expressed as Kd, was 0.472 nM.

B2: 04H09 (mouse) (antibody, V domains shown)
VH: QVQLQQSGAELVKPGASVKISCKASGYAFSSSWMNWVKQRPGKGLEWIGQIYPGDGDTNYNGKFKGKATLTADKSSSTAYMQLSSLTSEDSAVYFCARHYDGSTDYWGQGTTLTVSS
VL: DIQMTQSPASLSVSVGETVTITCRASENIYSNLAWYQQKQGKSPQLLVYAATNLADGVPSRFSGSGSGTQYSLKINSLQSEDFGSYYCQHFWGTPYTFGGGTKLEIK
notes: mouse IgG, kappa, purified from hybridoma; also called mouse 04H09 monoclonal antibody; 04H09 (murine)
With B2, the “CMVIC pSmad-3, IC50” value with TGFβ1 (R&D Systems) [3] came to 4.66 nM. Moreover, the binding result with human TGFβ1 (PeproTech) was “binds”. The dissociation constant Kd (commonly the constant that tells how readily two partners part at equilibrium) amounted to 7.13 nM with TGFβ2 (R&D Systems) [4], 1.26 nM with TGFβ3 (R&D Systems) [5] and 0.0443 nM with TGFβ1 (R&D Systems) [6].

B3: chi04H09 (mouse-dog) (antibody, V domains shown)
VH: B2 VH
VL: DIQMTQSPASLSVSVGETVTITCRASENIYSNLAWYQQKQGKSPQLLVYAATNLADGVPSRFSGSGSGTQYSLKINSLQSEDFGSYYCQHFWGTPYTFGGGTKLEIKR
notes: also called mouse:canine 04H09 chimera
As to B3, the “CMVIC pSmad-3, IC50” value with TGFβ3 (R&D Systems) [7] came to 66.5 nM; with TGFβ1 (R&D Systems) [3], 3.5 nM. The figures for the Kd with TGFβ2 (R&D Systems) [4], with TGFβ3 (R&D Systems) [5] and in the assay with TGFβ1 (R&D Systems) [6] were 27.7 nM, 4.64 nM and 4.01 nM, respectively.

B4: Can-SL501_VH3/Can-SL501-VL1 (antibody, V domains shown)
VH: EVQLVESGGDLVKPGGSLRLSCVASGFTFSSYGMHWVRQAPGKGLQWVAVISYDGSIKYYADAVKGRFTISRDNAKNTLYLQMNSLRAEDTAVYYCARTGEYSGYDTDPQYSWGQGTTVTVSS
VL: EIVMTQSPASLSLSQEEKVTITCRASQGIGDDLGWYQQKPGQAPKLLIYGTSTLQSGVPSRFSGSGSGTDFSFTISSLEPEDVAVYYCLQDSNYPLTFGAGTK
notes: caninized IgG; constant regions not restated; also called ZTS-501
For B4, the binding result with TGFβ3 (R&D Systems) [1] is listed as “no binding”. The same molecule came in with an equilibrium dissociation constant (Kd) with TGFβ1 (R&D Systems) [2] of 0.0218 nM. In the assay with TGFβ1 (R&D Systems) [8], the “CMVIC pSmad-3, IC50” value stood at 4.91 nM.

B5: mHcLb (antibody, V domains shown)
VH: QVQLEESGPELVRPGASVKLSCKASGYIFITYWMNWVKQRPGQGLEWIGQIFPASGSTNYNEMFEGKATLTVDTSSSTAYMQLSSLTSEDSAVYYCARGDGNYALDAMDYWGQGT
VL: DIVLTQTPASLAVSLGQRATISCRASESVDSYGNSFMHWYQQKSGQPPKLLIYLASNLESGVPARFSGSGSRTDFTLTIDPVEADDAATYYCQQNNEDPLTFGAGTK
notes: murine antibody; also called 1D11; mHcLb (murine)
For B5, the “pSmad-3, IC50” value is 11 nM with TGFβ2 (R&D Systems) [9], 1.11 nM in the assay with TGFβ3 (R&D Systems) [10] and 1.52 nM with TGFβ1 (R&D Systems) [11]. Further, the Kd worked out at 0.586 nM in the assay with TGFβ2 (R&D Systems) [12], 0.223 nM in the assay with TGFβ3 (R&D Systems) [13] and 5.05 nM with TGFβ1 (R&D Systems) [14].

B6: Can04H09 VH1/VL4 (antibody, V domains shown)
VH: EVQLVQSGAEVKKPGASVKVSCKTSGYTFISSWMNWVRQAPGAGLDWMGQIYPGDGDTNYNGKFKGRVTLTADTSTSTAYMELSSLRAGDIAVYYCARHYDGSTDYWGQGTLVTVSS
VL: EIVMTQSPASLSLSQGEKVTITCRASENIYSNLAWYQQRPGQAPKLLIYAATNLADGVPSRFSGSGSGTDFSLTISSLEPEDVAVYYCQHFWGTPYTFGQGTK
On to B6, for which the figures for the “CMVIC pSmad-3, IC50” value with TGFβ3 (R&D Systems) [7] and with TGFβ1 (R&D Systems) [3] were 136 nM and 0.88 nM, respectively. For the same molecule, the “IC50 (read off the curve), inhibition of TGFβ1-induced SMAD3 signalling [panel TGFβ1]” value with TGFβ1 (R&D Systems) [15] was about 0.2 µg/mL. The Kd with canine TGFβ1 turned out to be 2.18 nM; with canine TGFβ3, 4.78 nM; in the assay with canine TGFβ2, 29.7 nM.

B7: felHclb 1-1YMN (antibody, V domains shown)
VH: QVLLVQSGAEVRTPGASVKIFCKASGYIFITYYMNWVRQSPAQGLEWMGSIFPASGSTSYAQKFQGRLTLTADTSTNTAYMELSSLRSADTAMYYCARGDGNYALDAMDYWGQGTSVTVSS
VL: EIQMTQSPSSLSASPGDRVTITCRASESVDSYGNSFMHWYQQKPGKVPKLLIYLASNLESGVPSRFSGSGSGTDFTLTISSLEPEDAATYYCQQNNEDPLTFGAGT
notes: also called felHclbH1-1YMN/felHclbK1-1; felHcLb-H1-1MN
As to B7, in the assay with TGFβ1 (R&D Systems) [16], the affinity, expressed as Kd, was 263 µM.

B8: felHclb 1-1xWMN (antibody, V domains shown)
VH: B7 VH with Y33W, S50Q, S59N, A61N, Q62E, K63M, Q65E
VL: B7 VL
Consider B8, for which the figures for the “CMVIC pSmad-3, IC50” value in the assay with TGFβ2 (R&D Systems) [17], in the assay with TGFβ3 (R&D Systems) [18] and in the assay with TGFβ1 (R&D Systems) [19] were 1.99 nM, 0.53 nM and 0.35 nM, respectively.
